In patent publication US20130066054A1 (UCB, published 2013):
Substitutions are numbered along the chain they refer to. In names and notes the source's numbering stands. Several values for one entry are separate records, joined by “and”; a condition that tells them apart may be missing. Equal values may be shown once.

T1: OX40 (UniProt P43489 29-214)
T1 construct: also called O × 40
T1 sequence (looked up): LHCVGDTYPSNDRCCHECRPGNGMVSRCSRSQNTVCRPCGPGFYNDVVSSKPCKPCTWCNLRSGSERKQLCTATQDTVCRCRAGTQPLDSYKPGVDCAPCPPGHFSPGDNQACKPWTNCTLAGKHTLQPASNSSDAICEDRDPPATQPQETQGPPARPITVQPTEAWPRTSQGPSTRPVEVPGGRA

B1: A26Fab-(3xG4S)-dsFv645 (bispecific antibody)
heavy: EVQLVESGGGLVQPGGSLRLSCAASGFTFTNYGIHWIRQAPGKGLEWVASISPSGGLTYYRDSVKGRFTISRDDAKNSPYLQMNSLRAEDTAVYYCATGGEGIFDYWGQGTLVTVSSASTKGPSVFPLAPSSKSTSGGTAALGCLVKDYFPEPVTVSWNSGALTSGVHTFPAVLQSSGLYSLSSVVTVPSSSLGTQTYICNVNHKPSNTKVDKKVEPKSCSGGGGSGGGGSGGGGSEVQLLESGGGLVQPGGSLRLSCAVSGIDLSNYAINWVRQAPGKCLEWIGIIWASGTTFYATWAKGRFTISRDSTTVYLQMNSLRAEDTAVYYCARTVPGYSTAPYFDLWGQGTLVTVSS
light: DIQMTQSPSSLSASVGDRVTITCRATQSIYNALAWYQQKPGKAPKLLIYNANTLHTGVPSRFSASGSGTDSTLTISSLQPEDFATYYCQQYYDYPLTFGGGTKVEIKRTVAAPSVFIFPPSDEQLKSGTASVVCLLNNFYPREAKVQWKVDNALQSGNSQESVTEQDSKDSTYSLSSTLTLSKADYEKHKVYACEVTHQGLSSPVTKSFNRGECSGGGGSGGGGSGGGGSDIVMTQSPSSVSASVGDRVTITCQSSPSVWSNFLSWYQQKPGKAPKLLIYEASKLTSGVPSRFKGSGSGTDFTLTISSLQPEDFATYYCGGGYSSISDTTFGCGTKVEIK
modifications: 645 Fv disulfide between Cys44 of SEQ ID NO 227 and Cys100 of SEQ ID NO 44 (Kabat); both cysteines are already in the letters
notes: Fab-dsFv: anti-OX40 A26 Fab with the anti-HSA 645 disulfide-stabilised Fv at the C-termini; The asterisk of 'A26-645std*' is not explained; also called A26-645std; A26-645std*
B2: A26-645 Ser82bCys H (bispecific antibody)
heavy: B1 heavy with S318C
light: B1 light
modifications: 645 Fv disulfide between Cys44 of SEQ ID NO 227 and Cys100 of SEQ ID NO 44 (Kabat); both cysteines are already in the letters
notes: Surface cysteine mutant of A26-645 in the 645 Fv heavy domain (Kabat numbering); also called S82bC 645 Fv Heavy; mutation 6
B3: A26-645 Thr116Cys H (bispecific antibody)
heavy: B1 heavy with T120C
light: B1 light
modifications: 645 Fv disulfide between Cys44 of SEQ ID NO 227 and Cys100 of SEQ ID NO 44 (Kabat); both cysteines are already in the letters
notes: Surface cysteine mutant of A26-645 (Kabat numbering); also called T116C CH1; mutation 1
B4: A26-645 Ser163Cys H (bispecific antibody)
heavy: B1 heavy with S160C
light: B1 light
modifications: 645 Fv disulfide between Cys44 of SEQ ID NO 227 and Cys100 of SEQ ID NO 44 (Kabat); both cysteines are already in the letters
notes: Surface cysteine mutant of A26-645 (Kabat numbering); also called S163C CH1; mutation 2
B5: A26-645 Ser77Cys K (bispecific antibody)
heavy: B1 heavy
light: B1 light with S308C
notes: Surface cysteine mutant of A26-645 in the 645 Fv light domain (Kabat numbering); also called S77C 645 Fv light; mutation 14
B6: A26-645 Asn210Cys K (bispecific antibody)
heavy: B1 heavy
light: B1 light with N210C
modifications: 645 Fv disulfide between Cys44 of SEQ ID NO 227 and Cys100 of SEQ ID NO 44 (Kabat); both cysteines are already in the letters
notes: Surface cysteine mutant of A26-645 (Kabat numbering); also called N210C CK; mutation 12
B7: A26-645 Glu143Cys K (bispecific antibody)
heavy: B1 heavy
light: B1 light with E143C
notes: Surface cysteine mutant of A26-645 (Kabat numbering); also called E143C CK; mutation 8
B8: A26-645 Cys214Ser K (bispecific antibody)
heavy: B1 heavy
light: B1 light with C214S
modifications: 645 Fv disulfide between Cys44 of SEQ ID NO 227 and Cys100 of SEQ ID NO 44 (Kabat); both cysteines are already in the letters
notes: Control mutant of A26-645 without the light chain's interchain cysteine (Kabat numbering); also called C214S CK; mutation 13
B9: A26-645 Cys233Ser H (bispecific antibody)
heavy: B1 heavy with C220S
light: B1 light
modifications: 645 Fv disulfide between Cys44 of SEQ ID NO 227 and Cys100 of SEQ ID NO 44 (Kabat); both cysteines are already in the letters
notes: Control mutant of A26-645 without the heavy chain's interchain cysteine (Kabat numbering); also called C233S CH1; mutation 5
B10: A26-645 Lys149Cys K (bispecific antibody)
heavy: B1 heavy
light: B1 light with K149C
notes: Surface cysteine mutant of A26-645 (Kabat numbering); also called K149C CK; mutation 10
B11: A26-645 Ser171Cys K (bispecific antibody)
heavy: B1 heavy
light: B1 light with S171C
notes: Surface cysteine mutant of A26-645 (Kabat numbering); also called S171C CK; mutation 11
B12: A26-645 Lys145Cys K (bispecific antibody)
heavy: B1 heavy
light: B1 light with K145C
notes: Surface cysteine mutant of A26-645 (Kabat numbering); also called K145C CK; mutation 9
B13: A26-645 Ser182Cys H (bispecific antibody)
heavy: B1 heavy with S177C
light: B1 light
modifications: 645 Fv disulfide between Cys44 of SEQ ID NO 227 and Cys100 of SEQ ID NO 44 (Kabat); both cysteines are already in the letters
notes: Surface cysteine mutant of A26-645; also called A26-645 Ser180Cys H; S182C CH1
B14: A26-645 Lys107Cys K (bispecific antibody)
heavy: B1 heavy
light: B1 light with K340C
notes: Surface cysteine mutant of A26-645 in the 645 Fv light domain (Kabat numbering); also called K107C 645 Fv light; mutation 15

Target: T2, human serum albumin (human, UniProt P02768 25-609)
T2 construct: also called HSA
Test: SPR (Biacore 3000), Fab-dsFv captured, antigen injected, 1:1 fit;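 note: capture antibody amine-coupled on chip, 3 min antigen association then 20 min dissociation, antigen titrated, reference flow-cell and buffer blanks subtracted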
Experimental: (§1) Covalent immobilisation of the capture antibody was achieved by standard amine coupling chemistry.
(§2) Each assay cycle consisted of firstly capturing the Fab-dsFv using a 1 min injection, before an association phase consisting of a 3 min injection of antigen, after which dissociation was monitored for 20 min. After each cycle, the capture surface was regenerated with 2×1 min injections of 40 mM HCl followed by 30 s of 5 mM NaOH. The flow rates used were 10 μl/min for capture, 30 μl/min for association and dissociation phases, and 10 μl/min for regeneration.
(§3) For kinetic assays, a titration of antigen was performed, a blank flow-cell was used for reference subtraction and buffer-blank injections were included to subtract instrument noise and drift.

Row | Binder | Kd | koff | kon
1 | B1 | 3.57 nM and 4.11 nM | 0.000461 s⁻¹ and 0.000421 s⁻¹ | 129000 M⁻¹ s⁻¹ and 103000 M⁻¹ s⁻¹
2 | B2 | 1.09 nM | 0.000257 s⁻¹ | 236000 M⁻¹ s⁻¹
3 | B3 | 1.87 nM | 0.000351 s⁻¹ | 188000 M⁻¹ s⁻¹
4 | B4 | 3.34 nM | 0.000722 s⁻¹ | 216000 M⁻¹ s⁻¹
5 | B5 | 2.75 nM | 0.000282 s⁻¹ | 102000 M⁻¹ s⁻¹
6 | B6 | 1.6 nM | 0.000284 s⁻¹ | 178000 M⁻¹ s⁻¹
7 | B7 | 2.2 nM | 0.000337 s⁻¹ | 153000 M⁻¹ s⁻¹
8 | B8 | 1.7 nM | 0.000282 s⁻¹ | 166000 M⁻¹ s⁻¹
9 | B9 | 1.76 nM | 0.000275 s⁻¹ | 157000 M⁻¹ s⁻¹
10 | B10 | 1.72 nM | 0.00025 s⁻¹ | 145000 M⁻¹ s⁻¹
11 | B11 | 2.06 nM | 0.000257 s⁻¹ | 125000 M⁻¹ s⁻¹
12 | B12 | 1.89 nM | 0.000259 s⁻¹ | 137000 M⁻¹ s⁻¹
13 | B13 | 1.95 nM | 0.000411 s⁻¹ | 210000 M⁻¹ s⁻¹
14 | B14 | 2.28 nM | 0.000342 s⁻¹ | 150000 M⁻¹ s⁻¹

Target: T1, OX40
Test: as above
Experimental: as §1, §2, §3

Row | Binder | Kd | koff | kon
15 | B1 | 0.328 nM and 0.33 nM and 0.463 nM and 0.46 nM | 0.000149 s⁻¹ and 0.000191 s⁻¹ | 452000 M⁻¹ s⁻¹ and 413000 M⁻¹ s⁻¹
16 | B2 | 0.247 nM and 0.25 nM | 0.000117 s⁻¹ | 473000 M⁻¹ s⁻¹
17 | B3 | 0.27 nM | 0.000146 s⁻¹ | 540000 M⁻¹ s⁻¹
18 | B4 | 0.265 nM and 0.27 nM | 0.000146 s⁻¹ | 550000 M⁻¹ s⁻¹
19 | B5 | 0.248 nM and 0.25 nM | 0.000117 s⁻¹ | 470000 M⁻¹ s⁻¹
20 | B6 | 0.229 nM and 0.23 nM | 0.000111 s⁻¹ | 483000 M⁻¹ s⁻¹
21 | B7 | 0.325 nM and 0.33 nM | 0.000155 s⁻¹ | 477000 M⁻¹ s⁻¹
22 | B8 | 0.278 nM and 0.28 nM | 0.000122 s⁻¹ | 437000 M⁻¹ s⁻¹
23 | B9 | 0.27 nM | 0.000124 s⁻¹ | 461000 M⁻¹ s⁻¹
24 | B10 | 0.231 nM and 0.23 nM | 0.000107 s⁻¹ | 465000 M⁻¹ s⁻¹
25 | B11 | 0.194 nM and 0.19 nM | 9.24e-05 s⁻¹ | 477000 M⁻¹ s⁻¹
26 | B12 | 0.241 nM and 0.24 nM | 0.00011 s⁻¹ | 457000 M⁻¹ s⁻¹
27 | B13 | 0.247 nM and 0.25 nM | 0.000108 s⁻¹ | 437000 M⁻¹ s⁻¹
28 | B14 | 0.234 nM and 0.23 nM | 0.00012 s⁻¹ | 515000 M⁻¹ s⁻¹
